The text below walks through data of patent publication US20030044809A1, “Nucleic acid binding of multi-zinc finger transcription factors” (published 2003).

One data set has as its target T1, GST-SIP1CZF (mouse, UniProt Q9R0G7 Q9R0G7:957-1156).
T1 sequence: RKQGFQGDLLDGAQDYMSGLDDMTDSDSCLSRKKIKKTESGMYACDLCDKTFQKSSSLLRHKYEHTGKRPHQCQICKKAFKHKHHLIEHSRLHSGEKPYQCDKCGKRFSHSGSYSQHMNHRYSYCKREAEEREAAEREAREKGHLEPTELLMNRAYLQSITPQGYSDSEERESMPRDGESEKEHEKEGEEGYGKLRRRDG
Kind of data set: EMSA; strong. As to conditions: tags: GST; label: 32P. As to the method:
(§1) The DNA binding assay (20 μl) was performed at 25° C., with 1 μg of COS1 total cell protein, […] of poly dI-dC, 10 pg of ³²P-labeled double-stranded oligonucleotide (approx. 10⁴ Cerenkov counts) in the δEF1 binding buffer described previously (30). For supershift experiments, the extracts were incubated with anti-Myc (Santa Cruz) or anti-FLAG (Kodak) antibodies. For competition, an excess of unlabeled double-stranded oligonucleotides was added together with the labeled probe. The binding reaction was loaded onto a 4% polyacrylamide gel (acrylamide/bis-acrylamide, 19:1) prepared in 0.5XTBE buffer. Following electrophoresis, gels were dried, and exposed to X-Ray film. All experiments were repeated at least three times.
(§2) The integrity of both SIP1 zinc finger clusters is necessary for the binding of SIP1FS to DNA: Mutations within NZF3, NZF4, CZF2, CZF3 abolish the DNA-binding activity of either the SIP1NZF or SIP1CZF zinc finger clusters. The wild type and mutated zinc finger clusters were fused to GST and the fusion proteins were produced in E. Coli. After purification, an equal amount of each fusion proteins (0.1 ng) was incubated with 10 pg of labeled Xbra-E probe. Mutations within NZF3, NZF4, CZF2 or CZF3 affect the binding of SIP1FS to the Xbra-WT probe. […]
In general terms: In EMSA bound probe runs differently from free probe, usually more slowly.

The target of a further data set is T2, GST-SIP1NZF (mouse, UniProt Q9R0G7 Q9R0G7:90-383).
T2 sequence: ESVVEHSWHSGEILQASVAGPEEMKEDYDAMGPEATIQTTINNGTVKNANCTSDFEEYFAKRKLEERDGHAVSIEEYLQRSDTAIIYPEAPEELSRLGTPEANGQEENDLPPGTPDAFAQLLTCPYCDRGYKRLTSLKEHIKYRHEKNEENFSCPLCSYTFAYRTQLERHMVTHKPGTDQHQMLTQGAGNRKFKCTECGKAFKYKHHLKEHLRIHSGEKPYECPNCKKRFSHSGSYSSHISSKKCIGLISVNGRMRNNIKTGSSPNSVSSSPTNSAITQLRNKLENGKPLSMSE
Kind of data set: EMSA; strong. To be noted: tags: GST; label: 32P. As to the method: as §1, §2

B1: Xbra-E (dsDNA)
DNA 1: TAAAGTGACCAGGTGTCAGTTCT
DNA 2: AGAACTGACACCTGGTCACTTTA
Take B1: the binding result with GST-SIP1CZF and with GST-SIP1NZF was “binds” in each case.
